{"source": "patent US20250195573A1", "biological_target": "MART-1(27-35) presented by HLA-A2 on A375 melanoma cells (human) (UniProt Q16655)", "test": "cell-based or functional assay"}
{"substance": "DMF5 β:CD3z:MyD88 (from UniProt P20963 52-164; Q99836 1-155) (TCR)", "values": [{"measurement": "TNFa, IFNg, or IL-2 in supernatant by ELISA, T cells with peptide-pulsed A375 cells (× less antigen)", "value": 10}]}
